# Residue numbers refer to the chain shown, from its start. Numbers in names are those of the source.
# B1: His6-NSF-D1D2-myc fragment (206-744) (domain or fragment, Chinese hamster (from CHO cells), UniProt P18708 206-744, looked up)
# chain: QSIINPDWNFEKMGIGGLDKEFSDIFRRAFASRVFPPEIVEQMGCKHVKGILLYGPPGCGKTLLARQIGKMLNAREPKVVNGPEILNKYVGESEANIRKLFADAEEEQRRLGANSGLHIIIFDEIDAICKQRGSMAGSTGVHDTVVNQLLSKIDGVEQLNNILVIGMTNRPDLIDEALLRPGRLEVKMEIGLPDEKGRLQILHIHTARMRGHQLLSADVDIKELAVETKNFSGAELEGLVRAAQSTAMNRHIKASTKVEVDMEKAESLQVTRGDFLASLENDIKPAFGTNQEDYASYIMNGIIKWGDPVTRVLDDGELLVQQTKNSDRTPLVSVLLEGPPHSGKTALAAKIAEESNFPFIKICSPDKMIGFSETAKCQAMKKIFDDAYKSQLSCVVVDDIERLLDYVPIGPRFSNLVLQALLVLLKKAPPQGRKLLIIGTTSRKDVLQEMEMLNAFSTTIHVPNIATGEQLLEALELLGNFKDKERTTIAQQVKGKKVWIGIKKLLMLIEMSLQMDPEYRVRKFLALLREEGASPLDFD
# modifications: (Ni2+-NTA)2-Cy3 bound to the His6 tag (ultracentrifugation only)
# B2: His6-NSF-myc (1-744), N-Ethylmaleimide Sensitive Factor, wild type (enzyme, Chinese hamster (from CHO cells), UniProt P18708 1-744, looked up)
# chain: MAGRSMQAARCPTDELSLSNCAVVSEKDYQSGQHVIVRTSPNHKYIFTLRTHPSVVPGSVAFSLPQRKWAGLSIGQEIEVALYSFDKAKQCIGTMTIEIDFLQKKNIDSNPYDTDKMAAEFIQQFNNQAFSVGQQLVFSFNDKLFGLLVKDIEAMDPSILKGEPASGKRQKIEVGLVVGNSQVAFEKAENSSLNLIGKAKTKENRQSIINPDWNFEKMGIGGLDKEFSDIFRRAFASRVFPPEIVEQMGCKHVKGILLYGPPGCGKTLLARQIGKMLNAREPKVVNGPEILNKYVGESEANIRKLFADAEEEQRRLGANSGLHIIIFDEIDAICKQRGSMAGSTGVHDTVVNQLLSKIDGVEQLNNILVIGMTNRPDLIDEALLRPGRLEVKMEIGLPDEKGRLQILHIHTARMRGHQLLSADVDIKELAVETKNFSGAELEGLVRAAQSTAMNRHIKASTKVEVDMEKAESLQVTRGDFLASLENDIKPAFGTNQEDYASYIMNGIIKWGDPVTRVLDDGELLVQQTKNSDRTPLVSVLLEGPPHSGKTALAAKIAEESNFPFIKICSPDKMIGFSETAKCQAMKKIFDDAYKSQLSCVVVDDIERLLDYVPIGPRFSNLVLQALLVLLKKAPPQGRKLLIIGTTSRKDVLQEMEMLNAFSTTIHVPNIATGEQLLEALELLGNFKDKERTTIAQQVKGKKVWIGIKKLLMLIEMSLQMDPEYRVRKFLALLREEGASPLDFD
# modifications: (Ni2+-NTA)2-Cy3 bound to the His6 tag (ultracentrifugation only; 1 mole of dye per mole of NSF hexamer)
# B3: His6-NSF-L441A-myc (enzyme, Chinese hamster (from CHO cells), UniProt P18708 1-744, looked up)
# chain: B2 chain with L441A
# modifications: (Ni2+-NTA)2-Cy3 bound to the His6 tag (ultracentrifugation)
# B4: His6-NSF-R67A-myc (enzyme, Chinese hamster (from CHO cells), UniProt P18708 1-744, looked up)
# chain: B2 chain with R67A
# modifications: (Ni2+-NTA)2-Cy3 bound to the His6 tag (ultracentrifugation)
# B5: His6-NSF-D2 fragment (488-744) (domain or fragment, Chinese hamster (from CHO cells), UniProt P18708 488-744, looked up)
# chain: IKPAFGTNQEDYASYIMNGIIKWGDPVTRVLDDGELLVQQTKNSDRTPLVSVLLEGPPHSGKTALAAKIAEESNFPFIKICSPDKMIGFSETAKCQAMKKIFDDAYKSQLSCVVVDDIERLLDYVPIGPRFSNLVLQALLVLLKKAPPQGRKLLIIGTTSRKDVLQEMEMLNAFSTTIHVPNIATGEQLLEALELLGNFKDKERTTIAQQVKGKKVWIGIKKLLMLIEMSLQMDPEYRVRKFLALLREEGASPLDFD
# modifications: (Ni2+-NTA)2-Cy3 bound to the His6 tag (ultracentrifugation)
# Biological target: the molecule itself
# Test: negative-stain electron microscopy, single particle analysis
row,Protein,stoichiometry N
1,B1,6
2,B2,6

# Biological target: the molecule itself
# Test: AUC
row,Protein,% Hexamer [%]
1,B1,44 ± 2.93
2,B2,62 ± 5.74
3,B3,34.4 ± 1.06
4,B4,55.6 ± 12.5
5,B5,28.8 ± 1.92

# Biological target: the molecule itself
# Test: AUC
# Remark: another data set of the same source
row,Protein,% Hexamer [%]
1,B1,14.1 ± 0.31
2,B2,47 ± 3.7
3,B3,34.2 ± 2.78
4,B4,38.7 ± 4.21
5,B5,10.3 ± 0.63
